According to patent publication US11499162B2, “Plants having increased tolerance to herbicides” (BASF SE, priority 2016, dated 2022):

Type: biochemical
Conditions: pH 7.2
Procedure, shortened: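 % degradation measured against empty-vector control by UPLC-HR-MS, with product identity confirmed by exact mass and MS-MS. Conditions: 25 mM sodium phosphate pH 7.2, 30 °C, substrates at 1–10 nM. Enzyme source: TriA-expressing E. coli resting cells incubated with azines, melamine or atrazine.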

| Molecule | Degradation in % of 6-cyclopentyl-N4-(2,3,4,5,6-pentafluorophenyl)-1,3,5-triazine-2,4-diamine | Degradation in % of Melamine |
| --- | --- | --- |
| D250S: mutated TriA variant of SEQ ID NO: 2 (protein, Pseudomonas) MQTLSIQHGTLVTMDQYRRVLGDSWVHVQDGRIVALGVHAESVPPPADRVIDARGKVVLPGFINAHTHVNQILLRGGPSHGRQLYDWLFNVLYPGQKAMRPEDVAVAVRLYCAEAVRSGITTINDNADSAIYPGNIEAAMAVYGEVGVRVVYARMFFDRMDGRIQGYVDALKARSPQVELCSIMEETAVAKDRITALSDQYHGTAGGRISVWPAPAITPAVTVEGMRWAQAFARDRAVMWTLHMAESDHSERLHWMSPAEYMECYGLLDERLQVAHCVYFDRKDVRLLHRHNVKVASQVVSNAYLGSGVAPVPEMVERGMAVGIGTDDGNCNDSVNMIGDMKFMAHIHRAVHRDADVLTPEKILEMATIDGARSLGMDHEIGSIETGKRADLILLDLRHPQTTPHHHLAATIVFQAYGNEVDTVLIDGNVVMENRRLSFLPPERELAFLEEAQSRATAILQRANMVANPAWRSL | 16% | 0% |
| Y85LL92AY93LD250S: mutated TriA variant of SEQ ID NO: 2 (protein, Pseudomonas) MQTLSIQHGTLVTMDQYRRVLGDSWVHVQDGRIVALGVHAESVPPPADRVIDARGKVVLPGFINAHTHVNQILLRGGPSHGRQLLDWLFNVALPGQKAMRPEDVAVAVRLYCAEAVRSGITTINDNADSAIYPGNIEAAMAVYGEVGVRVVYARMFFDRMDGRIQGYVDALKARSPQVELCSIMEETAVAKDRITALSDQYHGTAGGRISVWPAPAITPAVTVEGMRWAQAFARDRAVMWTLHMAESDHSERLHWMSPAEYMECYGLLDERLQVAHCVYFDRKDVRLLHRHNVKVASQVVSNAYLGSGVAPVPEMVERGMAVGIGTDDGNCNDSVNMIGDMKFMAHIHRAVHRDADVLTPEKILEMATIDGARSLGMDHEIGSIETGKRADLILLDLRHPQTTPHHHLAATIVFQAYGNEVDTVLIDGNVVMENRRLSFLPPERELAFLEEAQSRATAILQRANMVANPAWRSL | 36% | 0% |
| L92AY93LD250S: mutated TriA variant of SEQ ID NO: 2 (protein, Pseudomonas) MQTLSIQHGTLVTMDQYRRVLGDSWVHVQDGRIVALGVHAESVPPPADRVIDARGKVVLPGFINAHTHVNQILLRGGPSHGRQLYDWLFNVALPGQKAMRPEDVAVAVRLYCAEAVRSGITTINDNADSAIYPGNIEAAMAVYGEVGVRVVYARMFFDRMDGRIQGYVDALKARSPQVELCSIMEETAVAKDRITALSDQYHGTAGGRISVWPAPAITPAVTVEGMRWAQAFARDRAVMWTLHMAESDHSERLHWMSPAEYMECYGLLDERLQVAHCVYFDRKDVRLLHRHNVKVASQVVSNAYLGSGVAPVPEMVERGMAVGIGTDDGNCNDSVNMIGDMKFMAHIHRAVHRDADVLTPEKILEMATIDGARSLGMDHEIGSIETGKRADLILLDLRHPQTTPHHHLAATIVFQAYGNEVDTVLIDGNVVMENRRLSFLPPERELAFLEEAQSRATAILQRANMVANPAWRSL | 99% | 0% |
| Y85LF89AL92AY93L: mutated TriA variant of SEQ ID NO: 2 (protein, Pseudomonas) MQTLSIQHGTLVTMDQYRRVLGDSWVHVQDGRIVALGVHAESVPPPADRVIDARGKVVLPGFINAHTHVNQILLRGGPSHGRQLLDWLANVALPGQKAMRPEDVAVAVRLYCAEAVRSGITTINDNADSAIYPGNIEAAMAVYGEVGVRVVYARMFFDRMDGRIQGYVDALKARSPQVELCSIMEETAVAKDRITALSDQYHGTAGGRISVWPAPAITPAVTVEGMRWAQAFARDRAVMWTLHMAESDHDERLHWMSPAEYMECYGLLDERLQVAHCVYFDRKDVRLLHRHNVKVASQVVSNAYLGSGVAPVPEMVERGMAVGIGTDDGNCNDSVNMIGDMKFMAHIHRAVHRDADVLTPEKILEMATIDGARSLGMDHEIGSIETGKRADLILLDLRHPQTTPHHHLAATIVFQAYGNEVDTVLIDGNVVMENRRLSFLPPERELAFLEEAQSRATAILQRANMVANPAWRSL | 15% | 0% |
| F89AL92AY93L: mutated TriA variant of SEQ ID NO: 2 (protein, Pseudomonas) MQTLSIQHGTLVTMDQYRRVLGDSWVHVQDGRIVALGVHAESVPPPADRVIDARGKVVLPGFINAHTHVNQILLRGGPSHGRQLYDWLANVALPGQKAMRPEDVAVAVRLYCAEAVRSGITTINDNADSAIYPGNIEAAMAVYGEVGVRVVYARMFFDRMDGRIQGYVDALKARSPQVELCSIMEETAVAKDRITALSDQYHGTAGGRISVWPAPAITPAVTVEGMRWAQAFARDRAVMWTLHMAESDHDERLHWMSPAEYMECYGLLDERLQVAHCVYFDRKDVRLLHRHNVKVASQVVSNAYLGSGVAPVPEMVERGMAVGIGTDDGNCNDSVNMIGDMKFMAHIHRAVHRDADVLTPEKILEMATIDGARSLGMDHEIGSIETGKRADLILLDLRHPQTTPHHHLAATIVFQAYGNEVDTVLIDGNVVMENRRLSFLPPERELAFLEEAQSRATAILQRANMVANPAWRSL | 99% | 7% |
| Y85LL92AY93V: mutated TriA variant of SEQ ID NO: 2 (protein, Pseudomonas) MQTLSIQHGTLVTMDQYRRVLGDSWVHVQDGRIVALGVHAESVPPPADRVIDARGKVVLPGFINAHTHVNQILLRGGPSHGRQLLDWLFNVAVPGQKAMRPEDVAVAVRLYCAEAVRSGITTINDNADSAIYPGNIEAAMAVYGEVGVRVVYARMFFDRMDGRIQGYVDALKARSPQVELCSIMEETAVAKDRITALSDQYHGTAGGRISVWPAPAITPAVTVEGMRWAQAFARDRAVMWTLHMAESDHDERLHWMSPAEYMECYGLLDERLQVAHCVYFDRKDVRLLHRHNVKVASQVVSNAYLGSGVAPVPEMVERGMAVGIGTDDGNCNDSVNMIGDMKFMAHIHRAVHRDADVLTPEKILEMATIDGARSLGMDHEIGSIETGKRADLILLDLRHPQTTPHHHLAATIVFQAYGNEVDTVLIDGNVVMENRRLSFLPPERELAFLEEAQSRATAILQRANMVANPAWRSL | 24% | 0% |
| Y85LL92AY93LD128AD250S: mutated TriA variant of SEQ ID NO: 2 (protein, Pseudomonas) MQTLSIQHGTLVTMDQYRRVLGDSWVHVQDGRIVALGVHAESVPPPADRVIDARGKVVLPGFINAHTHVNQILLRGGPSHGRQLLDWLFNVALPGQKAMRPEDVAVAVRLYCAEAVRSGITTINDNAASAIYPGNIEAAMAVYGEVGVRVVYARMFFDRMDGRIQGYVDALKARSPQVELCSIMEETAVAKDRITALSDQYHGTAGGRISVWPAPAITPAVTVEGMRWAQAFARDRAVMWTLHMAESDHSERLHWMSPAEYMECYGLLDERLQVAHCVYFDRKDVRLLHRHNVKVASQVVSNAYLGSGVAPVPEMVERGMAVGIGTDDGNCNDSVNMIGDMKFMAHIHRAVHRDADVLTPEKILEMATIDGARSLGMDHEIGSIETGKRADLILLDLRHPQTTPHHHLAATIVFQAYGNEVDTVLIDGNVVMENRRLSFLPPERELAFLEEAQSRATAILQRANMVANPAWRSL | 9% | 0% |
| D328G: mutated TriA variant of SEQ ID NO: 2 (protein, Pseudomonas) MQTLSIQHGTLVTMDQYRRVLGDSWVHVQDGRIVALGVHAESVPPPADRVIDARGKVVLPGFINAHTHVNQILLRGGPSHGRQLYDWLFNVLYPGQKAMRPEDVAVAVRLYCAEAVRSGITTINDNADSAIYPGNIEAAMAVYGEVGVRVVYARMFFDRMDGRIQGYVDALKARSPQVELCSIMEETAVAKDRITALSDQYHGTAGGRISVWPAPAITPAVTVEGMRWAQAFARDRAVMWTLHMAESDHDERLHWMSPAEYMECYGLLDERLQVAHCVYFDRKDVRLLHRHNVKVASQVVSNAYLGSGVAPVPEMVERGMAVGIGTDGGNCNDSVNMIGDMKFMAHIHRAVHRDADVLTPEKILEMATIDGARSLGMDHEIGSIETGKRADLILLDLRHPQTTPHHHLAATIVFQAYGNEVDTVLIDGNVVMENRRLSFLPPERELAFLEEAQSRATAILQRANMVANPAWRSL | 19% | 0% |
| F89LL92AY93L: mutated TriA variant of SEQ ID NO: 2 (protein, Pseudomonas) MQTLSIQHGTLVTMDQYRRVLGDSWVHVQDGRIVALGVHAESVPPPADRVIDARGKVVLPGFINAHTHVNQILLRGGPSHGRQLYDWLLNVALPGQKAMRPEDVAVAVRLYCAEAVRSGITTINDNADSAIYPGNIEAAMAVYGEVGVRVVYARMFFDRMDGRIQGYVDALKARSPQVELCSIMEETAVAKDRITALSDQYHGTAGGRISVWPAPAITPAVTVEGMRWAQAFARDRAVMWTLHMAESDHDERLHWMSPAEYMECYGLLDERLQVAHCVYFDRKDVRLLHRHNVKVASQVVSNAYLGSGVAPVPEMVERGMAVGIGTDDGNCNDSVNMIGDMKFMAHIHRAVHRDADVLTPEKILEMATIDGARSLGMDHEIGSIETGKRADLILLDLRHPQTTPHHHLAATIVFQAYGNEVDTVLIDGNVVMENRRLSFLPPERELAFLEEAQSRATAILQRANMVANPAWRSL | 35% | 0% |
| D328A: mutated TriA variant of SEQ ID NO: 2 (protein, Pseudomonas) MQTLSIQHGTLVTMDQYRRVLGDSWVHVQDGRIVALGVHAESVPPPADRVIDARGKVVLPGFINAHTHVNQILLRGGPSHGRQLYDWLFNVLYPGQKAMRPEDVAVAVRLYCAEAVRSGITTINDNADSAIYPGNIEAAMAVYGEVGVRVVYARMFFDRMDGRIQGYVDALKARSPQVELCSIMEETAVAKDRITALSDQYHGTAGGRISVWPAPAITPAVTVEGMRWAQAFARDRAVMWTLHMAESDHDERLHWMSPAEYMECYGLLDERLQVAHCVYFDRKDVRLLHRHNVKVASQVVSNAYLGSGVAPVPEMVERGMAVGIGTDAGNCNDSVNMIGDMKFMAHIHRAVHRDADVLTPEKILEMATIDGARSLGMDHEIGSIETGKRADLILLDLRHPQTTPHHHLAATIVFQAYGNEVDTVLIDGNVVMENRRLSFLPPERELAFLEEAQSRATAILQRANMVANPAWRSL | 95% | 5% |
